According to patent publication US8148119B2, “Hydroxylase gene and use thereof” (Microbiopharm Japan Co., Ltd., priority 2006, dated 2012):
Entries after “also recorded” stand apart in the source; their conditions may differ. Read-outs that look alike come from different tables or passages of the source.

Tests used:
[1] = cited from earlier work
[2] = cited from earlier work; remark: listed apart in the source
[3] = molecular target: T1, VDH (Pseudonocardia autotrophica, UniProt C4B644); test: Reduced-CO difference spectral analysis, VDH expression in Escherichia coli BL21(DE3) transformants
T1 construct: there was no mutation of the VDH gene and the VDH gene was inserted in the designated site; made in house; host or cells: Escherichia coli BL21(DE3), cell-free extract
T1 sequence (C4B644 2-403): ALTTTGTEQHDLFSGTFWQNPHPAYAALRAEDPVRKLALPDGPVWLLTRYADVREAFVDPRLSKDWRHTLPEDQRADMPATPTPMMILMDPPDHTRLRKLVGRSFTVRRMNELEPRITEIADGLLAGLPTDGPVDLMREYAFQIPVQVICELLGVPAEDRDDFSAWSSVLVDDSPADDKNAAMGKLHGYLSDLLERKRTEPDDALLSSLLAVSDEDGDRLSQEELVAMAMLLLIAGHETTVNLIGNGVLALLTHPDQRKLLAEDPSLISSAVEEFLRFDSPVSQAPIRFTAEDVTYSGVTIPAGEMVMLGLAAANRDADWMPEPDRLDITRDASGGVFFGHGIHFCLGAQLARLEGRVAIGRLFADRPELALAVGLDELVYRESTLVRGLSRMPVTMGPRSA
Protocol: First, the cell suspension obtained by the method previously described was subjected to cell disruption at 4° C. using 0.1 mm glass beads by a cell disruptor, Multi-beads shocker (manufactured by Yasui Kikai Corporation). In the cell disruption, ten cycles of 30-second shaking at 2500 rpm and a 30-second break were conducted. The cell-disrupted solution was centrifuged at 12000 rpm for 10 minutes to thereby obtain a cell-free extract. 700 μl of the cell-free extract was transferred into each of two test tubes with caps and carbon monoxide was purged into one of the tubes. Then, a small amount of sodium hydrosulfite was added to the cell-free extract in both of the tubes. Taking the absorption spectrum at from 400 nm to 500 nm of the sample without the purge of carbon monoxide as the baseline level, the absorption spectrum at from 400 to 500 nm of the sample purged with carbon monoxide was scanned using a spectrophotometer (U-3210 SpectrophotoMeter manufactured by HITACHI, Ltd.).
First, the cell suspension of transformed Escherichia coli BL21(DE3)/pVDH-thcCD obtained by the method previously described was subjected to cell disruption at 4° C. using 0.1 mm glass beads by a cell disruptor, Multi-beads shocker (manufactured by Yasui Kikai Corporation). In the cell disruption, ten cycles of 30-second shaking at 2500 rpm and a 30-second break were conducted. […]

[4] = VD3 conversion in reconstituted system (cell-free extract or purified VDH plus redox partner); assay type: biochemical

B1: Human CYP27A1: human cytochrome P450 known to have hydroxylation activity at 25-position of vitamin D3 (protein, UniProt Q02318 34-531, looked up)
Sterol 26-hydroxylase, …: ALPSDKATGAPGAGPGVRRRQRSLEEIPRLGQLRFFFQLFVQGYALQLHQLQVLYKAKYGPMWMSYLGPQMHVNLASAPLLEQVMRQEGKYPVRNDMELWKEHRDQHDLTYGPFTTEGHHWYQLRQALNQRLLKPAEAALYTDAFNEVIDDFMTRLDQLRAESASGNQVSDMAQLFYYFALEAICYILFEKRIGCLQRSIPEDTVTFVRSIGLMFQNSLYATFLPKWTRPVLPFWKRYLDGWNAIFSFGKKLIDEKLEDMEAQLQAAGPDGIQVSGYLHFLLASGQLSPREAMGSLPELLMAGVDTTSNTLTWALYHLSKDPEIQEALHEEVVGVVPAGQVPQHKDFAHMPLLKAVLKETLRLYPVVPTNSRIIEKEIEVDGFLFPKNTQFVFCHYVVSRDPTAFSEPESFQPHRWLRNSQPATPRIQHPFGSVPFGYGVRACLGRRIAELEMQLLLARLIQKYKVVLAPETGELKSVARIVLVPNKKVGLQFLQRQC
For B1, the Km ([1]; literature values (Sawada et al.; Uchida et al.), read-out: Km for 25-OH VD3) is listed as 3.5 µM, the “Vmax for 25-OH VD3” value ([1]; literature values) is listed as 21 mmol/min/mol of P450 and the Km ([2]; literature values (Sawada et al. 2004), read-out: Km for VD3) is listed as 3.2 µM. For the same molecule, the “Vmax for VD3” value ([2]; literature values) was 270 mmol/min/mol of P450.

B2: VDH: hydroxylase of vitamin D or the like from Pseudonocardia autotrophica, cytochrome P450, amino acid sequence ID No. 2 (protein, listed as Pseudonocardia autotrophica)
chain: MALTTTGTEQHDLFSGTFWQNPHPAYAALRAEDPVRKLALPDGPVWLLTRYADVREAFVDPRLSKDWRHTLPEDQRADMPATPTPMMILMDPPDHTRLRKLVGRSFTVRRMNELEPRITEIADGLLAGLPTDGPVDLMREYAFQIPVQVICELLGVPAEDRDDFSAWSSVLVDDSPADDKNAAMGKLHGYLSDLLERKRTEPDDALLSSLLAVSDEDGDRLSQEELVAMAMLLLIAGHETTVNLIGNGVLALLTHPDQRKLLAEDPSLISSAVEEFLRFDSPVSQAPIRFTAEDVTYSGVTIPAGEMVMLGLAAANRDADWMPEPDRLDITRDASGGVFFGHGIHFCLGAQLARLEGRVAIGRLFADRPELALAVGLDELVYRESTLVRGLSRMPVTMGPRSA
In the case of B2, the “Estimated concentration of VDH per culture” value ([3]; Escherichia coli BL21(DE3)/pVDH-camAB) is reported as 113 nM, the “VDH expression per culture fluid” value ([3]; Escherichia coli BL21(DE3)/pVDH-thcCD) is reported as 258 nM and the “Hydroxides of VD3 detected by HPLC” value ([4]; ferredoxin and ferredoxin reductase derived from spinach, 10 μM VD3, 30° C.) is reported as “a reaction proceeds; also recorded: converting VD3 to HVD, DHVD and THVD”. For the same molecule, the “Reaction in reconstituted system with putidaredoxin and putidaredoxin reductase” value ([4]; redox partner derived from Pseudomonas putida) was “electron transfer reaction did not proceed”.

B3: P450SU-1: cytochrome P450 derived from actinomycete Streptomyces griseolus ATCC 11796, reported to hydroxylate vitamin D3 (protein, UniProt P18326 2-406, looked up)
Vitamin D3 dihydroxylase: TDTATTPQTTDAPAFPSNRSCPYQLPDGYAQLRDTPGPLHRVTLYDGRQAWVVTKHEAARKLLGDPRLSSNRTDDNFPATSPRFEAVRESPQAFIGLDPPEHGTRRRMTISEFTVKRIKGMRPEVEEVVHGFLDEMLAAGPTADLVSQFALPVPSMVICRLLGVPYADHEFFQDASKRLVQSTDAQSALTARNDLAGYLDGLITQFQTEPGAGLVGALVADQLANGEIDREELISTAMLLLIAGHETTASMTSLSVITLLDHPEQYAALRADRSLVPGAVEELLRYLAIADIAGGRVATADIEVEGHLIRAGEGVIVVNSIANRDGTVYEDPDALDIHRSARHHLAFGFGVHQCLGQNLARLELEVILNALMDRVPTLRLAVPVEQLVLRPGTTIQGVNELPVTW
For B3, the “Hydroxylation of vitamin D3 to 25-hydroxy vitamin D3 and of 25-hydroxy vitamin D3 to 1α,25-hydroxy vitamin D3” value ([2]; reported by Sawada et al. 2004) is given as “weak activity”.
